The target in assay [1] is T1, SelSP1 (PSGL-1 sulfopeptide).
T1 construct: also called sulfopeptide modelled after the N-terminus of human PSGL-1
In words: SPR (SensiQ Pioneer), about 1,000 RU SelK2 captured on Protein G, SelSP1 as analyte, 25 °C, 1:1 model. The procedure: (§1) SensíQ Pioneer (S/N 13110154) was used for all SPR measurements at a controlled temperature of 25° C. SelK2 (Lot #14-2189) was dispensed into three 1 mL aliquots in the biosafety cabinet. Protein G was purchased from BioVision (Cat. #6510). Running buffer for Pioneer contained 10 mM HEPES pH 7.4, 150 mM NaCl, 3.4 mM EDTA and 0.005% Tween-20. All other reagents were purchased from Sigma Aldrich.
(§2) A new COOH2 biosensor was installed and conditioned according to CH0012 protocol. Protein G was immobilized via amine coupling. A mixture containing 0.1M EDC and 0.025M NHS was injected for 4 minutes over flow channel 1 (FC1) and FC2. 50 μg/mL Protein G in 10 mM Sodium acetate buffer pH 4.5 was injected for 15 minutes over FC1 and FC2. 1M Ethanolamine HCl solution pH 8.0 was injected for 5 minutes over FC1 and FC2. Approximately 1,145 response units (RU) of Protein G was coupled on FC1 and FC2 of the sensor chip. 50 nM SelK2 in system buffer was injected to capture approximately 2,000 RU SelK2 on FC1 and 1,000 RU on FC2. […] Each sample was injected for 3 min at a flow rate of 40 μL/min. Dissociation was monitored after each injection for 4 min at the same flow rate. Samples were tested in duplicate from low concentration to high.
(§3) Kinetic model fitting was performed using Qdat analysis software (SensiQ Technologies, Inc. Version 2.5.1.56). A simple 1:1 kinetic model was fit to the data to determine best fit values for association and dissociation rate constants, ka and kd. A local Rmax was fit for each curve to account for incomplete dissociation of the SelSP1 after some of the analyte injections.

The target is the same in assay [2]. Kind of assay: SPR; summary sentence in the description; target printed as PSGL-1, but the worked example used the PSGL-1 sulfopeptide SelSP1.
Assay [3] has the same target. In words: SPR, captured SelK2, SelSP1 as analyte; value told over the two surface densities. As to the method:
as §2, §3

Assay [4] shares this target. In words: SPR (SensiQ Pioneer), about 2,000 RU SelK2 captured on Protein G, SelSP1 as analyte, 25 °C, 1:1 model. As to the method: as §1, §2, §3

B1: SelK2 (antibody, human IgG2, kappa, V domains shown)
VH: QVQLVESGGGVVQPGRSLRLSCAASGFTFSSFGMHWVRQAPGKGLEWVAYISSASSTIYYADTVKGRFTISRDNSKNTLYLQMNSLRAEDTAVYYCASSYGYWGQGTLVTVSS
VL: DIVMTQTPLSLPVTPGEPASISCRSSRSLVHSNGNTYLHWYLQKPGQSPQLLIYKVSNRFSGVPDRFSGSGSGTDFTLKISRVEAEDVGVYYCSQTTHVPLTFGQGTRLEIKR
notes: human kappa light chain; also called SelK2 antibody; humanised anti-PSGL-1 antibody
B1: in assay [1], binding was put at a Kd of 4.27 nM, the koff was 0.00232 s⁻¹ and the kon was determined as 544000 M⁻¹ s⁻¹. Further, in assay [2], the “fold increase in affinity against the parental antibody” value was around 4 fold. Also, the Kd in assay [3] was determined as 4.28 nM. In assay [4], the equilibrium dissociation constant (Kd) is 4.29 nM, the koff is 0.00218 s⁻¹ and the kon worked out at 508000 M⁻¹ s⁻¹.
